The nanobody polyreactivity screen of Harvey et al. (2022)

assay: yeast display, Sf9 membrane polyspecificity reagent, FACS + sequencing; frameworks hold sequencing errors
Procedure, shortened: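 Galactose induction of a Saccharomyces cerevisiae BJ5465 synthetic nanobody display library ran 36–48 hours. The cells were then stained for 1 hour at 4 °C with 10% biotinylated, detergent-solubilized Sf9 membrane reagent, pulled down on streptavidin microbeads and FACS-sorted into low and high (top ~1%) gates on expression and reagent-binding fluorescence. Labels for polyreactivity follow the gate of origin.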

Row | Sequence | polyreactivity (PSR sort gate)
1 | QVQLVESGGGLVQAGGSLRLSCAASGSTLAGYAMGWSRQAPGKERELVAAITRRGGRTYYADSVKGRFTISRDNAKNTVYLQMNSLKPEDTAVYYCAAQRSVKVDYWGQGTQVTVSS | high polyreactivity
2 | QVQLVESGGGLVQAGGSLRLSCAASGSTLAIYAMGWYRQAPGKERELVAAISRSGGTTYYADSVKGRFTISRDNAKNTVYLQMNSLKPEDTAVYYCYPYFWYPDGYTYDYWGQGTQVTVSS | high polyreactivity
3 | QVQLVESGGGLVQAGGSLRLSCAASGSTLAPYVKGWYRQAPGKERELVAVISTRTGRTYYADSVKGRFTISRDNAKNTVYLQMNSLKPEDTAVYYCAAPVYPYQVQTYDYWGQGTQVTVSS | high polyreactivity
4 | QVQLVESGGGLVQAGGSLRLSCAASGSTLAVYAMGWYRQAPGKEREFVAAISWSGVSTYYADSVKGRFTISRDNAKNTVYLQMNSLKPEDTAVYYCAAKRVRALYGGSEGGYWGQGTQVTVSS | low polyreactivity
5 | QVQLVESGGGLVQAGGSLRLSCAASGSTLAVYPMGWYRQAPGKERELVAVIDRGGSTYYADSVKGRFTISRDNAKNTVYLQMNSLKPEDTAVFNCNARRVKGYGYWGHGTQVTVSS | high polyreactivity
6 | QVQLVESGGGLVQAGGSLRLSCAASGSTLAYNAMGWYRQAPGKERELVATINFSGGSTYYADSVKGRFTISRDNSKNTVYLQMNSLKPEDTAVYYCNARGYWQYSPTKFDYWGQGTQVTVSS | low polyreactivity
7 | QVQLVESGGGLVQAGGSLRLSCAASGSTLDDYVMGWYRQAPGKERELVAAISSSGSGTYYADSVKGRFTISRDNAKNTVYLQMNSLKPEDTAVYYCAAAYSYSGYGYYTYDYWGQGTQVTVSS | low polyreactivity
8 | QVQLVESGGGLVQAGGSLRLSCAASGSTLDEYAMGWYRQAPGKEREFVAAISWSDGSTYADSVKGRFTISRDNAKNTVYLQMNSLKPEDTAVYYCNAYAYVSLYYSGEYWGQGTQVTVSS | low polyreactivity
9 | QVQLVESGGGLVQAGGSLRLSCAASGSTLDSNAMGWYRQATGKERELVAAIDWSGGSTYYADSVKGRFTISRDHAKNTVYLQMNSLKPEDTAVYYCAADDSSINYGDFDYWGQGTQVTVSS | low polyreactivity
10 | QVQLVESGGGLVQAGGSLRLSCAASGSTLDVYAMGWYRQAPGKERELVAAISWSVGSTYYAYSVKGRFKISRDNAKNTVYLQINRLKPEDTAVYNCAAEQYEYAYDGYDYWGQGTQVTVSS | high polyreactivity
11 | QVQLVESGGGLVQAGGSLRLSCAASGSTLDYNDMGWYRQAPGKEREFVAAIRSNDGSTYYADSVKGRFTISRDNAKKTVYLQMNSLKPEDTAVYYCNKDVWDGYDWPEFDYLGQGTQVTVSS | low polyreactivity
12 | QVQLVESGGGLVQAGGSLRLSCAASGSTLGRNAMGWYRQAPGKERELVAAISSTGGSTSYADSVKGRFTISRDNAKNTVYLQMNSLKPEDTAVYYCAKRFSPRYYYWGQGTQVTVSS | high polyreactivity
13 | QVQLVESGGGLVQAGGSLRLSCAASGSTLGSYAMGWYRQAPGKERELVAAINTSGGNTYYADSVKGRFTISRDNAKNTVYLQMNSLKPEDTAVYYCNARYYGGGATFGYWGQGTQVTVSS | low polyreactivity
14 | QVQLVESGGGLVQAGGSLRLSCAASGSTLGVNAMGWYRQAPGKEREFVSSITGRVGNTYYADSVKGRFTISRDNAKNTVYLQMNSLKPEDTAVYYCAARVKYTRYQSILDYYYWGQGTQVTVSS | high polyreactivity
15 | QVQLVESGGGLVQAGGSLRLSCAASGSTLGYYAKGWYRQAPGKERELVATITRSGGNTYYADSVKGRFTISRDNAKNTVYLQMNSLKPEDTAVYYCAARRLYGSQRGYWGQGTQLTVSS | high polyreactivity
16 | QVQLVESGGGLVQAGGSLRLSCAASGSTLHSYAMGWYRQAPGKERELVAALSFRGGSTYADSVKGRFTISRDNAKNTVYLQMNSLKPEDTAVYYCATRSTRADWYIVGYDYWGQGTQVTVSS | low polyreactivity

Row | Sequence | polyreactivity (PSR sort gate)
17 | QVQLVESGGGLVQAGGSLRLSCAASGSTLIANAMGWYRQAPGKERELVAGITYRGGDITTYADSVKGRFTISRDTAKNTVYLQMNSLKPEDTAVYYCAARVVWPTWARGGYWGQGTQVTVSS | low polyreactivity
18 | QVQLVESGGGLVQAGGSLRLSCAASGSTLIDYTMGWYRQAPGKERELVAAISSGGSTNYADSVKGRFTISRDNAKNTVYLQMNSLKPEDTAVYYCAKDHQRYFYGFWEHPRYDYWGQGTQVTVSS | high polyreactivity
19 | QVQLVESGGGLVQAGGSLRLSCAASGSTLIEYAKGWYRQAPGKERELVARISKSGDSTYYADSVKGRFTISRDNAKNTVYLQMNSLKPEDTAVYYCAKYHRDGFYRSYWFRYDYWGQGTQVTVSS | low polyreactivity
20 | QVQLVESGGGLVQAGGSLRLSCAASGSTLIWNVMGWYRQAPGKERELVATISSGGRTYYADSVKGRFTISRDNAKNTVYLQMNSLKPEDTAVYYCAARSRRGVSYRSYRSFDYWGQGTQVTVSS | high polyreactivity
21 | QVQLVESGGGLVQAGGSLRLSCAASGSTLKYNAMGWYRQATGKERELVAAISTSGGNTYYADSVKGRFTISRDNAKNTVYLQMNSLKPEDPAVYYFAKVLGYYYYDYDSWGQGTQVTLSS | low polyreactivity
22 | QVQLVESGGGLVQAGGSLRLSCAASGSTLKYYTMGWYRQAPGKERELVAAISWSGGRTYYADSVKGRFTISRDNAKNTVYLQMNCLKPEDTAVYYCAKYPGYRSSGRISYEYDYWGQGTQVTVSS | high polyreactivity
23 | QVQLVESGGGLVQAGGSLRLSCAASGSTLKYYTMGWYRQAPGKERELVAAISWSGGRTYYADSVKGRFTISRDNAKNTVYLQMNSLKPEDTAVYYCNARRTFPRYDRKYESWGQGTQVTVSS | high polyreactivity
24 | QVQLVESGGGLVQAGGSLRLSCAASGSTLNVNAMGWYRQAPGKERELVAAITSGGSTYYADSVKGRFTISRDNAKNTVYLQMNSLKPEDTAVYYCNKRRSWRPTYPFGGSGFYYWGQGTQVTVSS | low polyreactivity
25 | QVQLVESGGGLVQAGGSLRLSCAASGSTLNYYAMAWYRQAPGKEMELVAAITWSGGSTSYADSVKGRFTISRDNAKNTVYLQMNSLKPEDTAVYYCATDFPTVQLYDTDWLSSDMGYWGQGTQVTVSW | low polyreactivity
26 | QVQLVESGGGLVQAGGSLRLSCAASGSTLNYYAMGWYRQAPGKERELVAAITWSGGSTSYADSVKGRFTISRDNAKNTVYVQMNSLKPEDTAVYYGATDFPTVQLYDTDWLSSDMGYWGQGTQVTVSS | low polyreactivity
27 | QVQLVESGGGLVQAGGSLRLSCAASGSTLNYYAMGWYRQAPGKEWELVAAITWSGGSTSYADSVKGRFTISRDNAKNTVYLQMNSLKPEDTAVYYCATDFPTVQLYDTDWLSSDMGYWGQGTQVTVSS | low polyreactivity
28 | QVQLVESGGGLVQAGGSLRLSCAASGSTLPGNTMGWYRQAPGKERELVAAISKSGGTTYYADSVKGRFTISRDYAKNTVYLQMNSLKPEDTAVYYCAAKPWVWVYARYGKHPSYDYWGQGTQVTVSS | high polyreactivity
29 | QVQLVESGGGLVQAGGSLRLSCAASGSTLPPNAMGWSRQAPGKERELVAAISYSGDSTHYADSVKGRFTISRDNAKNTVYLQMNSLKPEDTAVYYCYASSPGAVPVYDYDYWGQGTQVTVSS | low polyreactivity
30 | QVQLVESGGGLVQAGGSLRLSCAASGSTLPRYTMGWYRQAPGKERELVAAISFSGSSTYYADSVKGRFTISRVNAKNTVYLQMNSLKPEDTAVYYCRYGYNYWGQGTQVTVSS | high polyreactivity
31 | QVQLVESGGGLVQAGGSLRLSCAASGSTLPTNAMGWYRQAPGKERELVASNDQSGGSTYADSVKGRFTISRDNAKNTVYLQMNSLKPEDTAVYYCNARDSLRYYTYYFEYYRVGYEYWGQGTQVTVSS | high polyreactivity
